Test results: US20110002929A1 (Ablynx, published 2011)

T1: human RANK-L (human, UniProt O14788 140-317, limits assumed)
T1 construct: Soluble protein, used coated, biotinylated or labelled in ELISA, AlphaScreen, FMAT and Biacore; also called hRANK-L; soluble human RANK-L
T1 sequence (looked up): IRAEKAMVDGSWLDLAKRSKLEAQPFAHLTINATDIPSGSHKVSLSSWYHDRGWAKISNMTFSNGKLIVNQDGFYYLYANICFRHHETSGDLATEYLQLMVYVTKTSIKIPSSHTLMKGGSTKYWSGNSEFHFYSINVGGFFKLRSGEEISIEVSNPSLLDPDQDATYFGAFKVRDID

T2: mouse RANK-L (mouse, UniProt O35235 158-316, limits assumed)
T2 construct: also called murine RANK-L
T2 sequence (looked up): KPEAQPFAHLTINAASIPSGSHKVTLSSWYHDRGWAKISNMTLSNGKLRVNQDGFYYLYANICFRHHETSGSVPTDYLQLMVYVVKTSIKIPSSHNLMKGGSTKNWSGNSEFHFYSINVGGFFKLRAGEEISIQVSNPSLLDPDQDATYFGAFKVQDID


Columns and labels:
[1] = molecular target: T1, human RANK-L; assay: FMAT, ALEXA647-hRANK-L / RANK on HEK293T cells
[2] = molecular target: T3, TNFα (UniProt P01375 77-233); assay: competition ELISA on human RANK-L-coated plates, 100 pM Nanobody preincubated with the ligand
T3 construct: also called TNF-alpha
T3 sequence (P01375 77-233 limits assumed): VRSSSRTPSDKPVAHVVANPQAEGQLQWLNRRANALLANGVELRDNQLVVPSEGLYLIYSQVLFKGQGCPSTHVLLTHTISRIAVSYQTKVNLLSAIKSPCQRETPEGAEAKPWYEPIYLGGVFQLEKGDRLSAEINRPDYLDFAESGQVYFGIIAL

[3] = molecular target: T4, TRAIL (UniProt P50591 114-281, limits assumed); assay: as above
T4 construct: also called tumor necrosis factor-related apoptosis inducing ligand
T4 sequence (P50591 114-281 limits assumed): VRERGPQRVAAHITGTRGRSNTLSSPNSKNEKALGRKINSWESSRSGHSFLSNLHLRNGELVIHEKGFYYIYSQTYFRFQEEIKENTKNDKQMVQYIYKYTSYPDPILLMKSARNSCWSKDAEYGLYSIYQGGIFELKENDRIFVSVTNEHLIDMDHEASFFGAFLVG

[4] = molecular target: T2, mouse RANK-L; assay: as above
[5] = molecular target: T1, human RANK-L; assay: AlphaScreen, biotin-hRANK-L / RANK-huFc beads
[6] = molecular target: T1, human RANK-L; assay: AlphaScreen, biotin-hRANK-L / RANK-huFc beads; remark: listed apart in the source
[7] = molecular target: T1, human RANK-L; assay: AlphaScreen, biotin-hRANK-L / RANK-huFc beads; remark: listed apart in the source
Method: To this mixture, the RANK acceptor beads and the streptavidin donor beads were added and further incubated for 1 hour at room temperature. Fluorescence was measured by reading plates on the EnVision Multilabel Plate Reader (Perkin Elmer) using an excitation wavelength of 680 nm and an emission wavelength of 520 nm.

[8] = molecular target: T1, human RANK-L; assay: ELISA (ED50), biotin-hRANK-L on neutravidin
Method: (§1) Therefore 2 μg/ml neutravidin was coated overnight at 4° C. The plates were washed 5 times with 300 μl PBS and then blocked with […] 1% casein/PBS for 2 hours at room temperature. […] After extensive washing with PBS, varying concentrations of Nanobodies starting from 500 nM to 160 pM diluted in 1% casein/PBS were added to the wells and the plates were incubated for 1 hour at room temperature. Bound Nanobodies were detected by subsequent incubations of a primary mouse anti-myc antibody and a secondary anti mouse-HRP conjugate (DAKO, Glostrup, Denmark) and using TMB-H2O2 (Pierce, Rockford, Ill., USA) substrate cocktail. The reaction was stopped with H₂SO₄ and the OD was read at 450 nm.

[9] = molecular target: T1, human RANK-L; assay: cell-based or functional assay
[10] = molecular target: T2, mouse RANK-L; assay: ELISA (ED50) on murine RANK-L, set-up as for human RANK-L
Method: as §1

IC50 [1] [nM]	binding result [2]	binding result [3]	binding result [4]	IC50 [5] [nM]	IC50 [6] [nM]	IC50 [7] [nM]	EC50 [8] [nM]	RANK-L induced NF-kappaB activation (luciferase reporter, HEK293T cells), IC50 [9] [nM]	EC50 [10] [nM]	Binder
0.041	no binding (tested: 10 nM)	no binding (tested: 10 nM)	no binding (tested: 10 nM)	0.049	–	–	–	–	–	RANKL001p (VHH, PEG (3-Maleimidoproprionamide, 1,3-bis(Methoxy poly (ethylene glycol) modified 2-glycerol), Average MW 40,000) coupled after DTT reduction; the entry ends in GGGC, Bivalent pegylated humanized Nanobody; also called RANKL13hum5-9GS-RANKL13hum5-PEG) EVQLVESGGGLVQPGGSLRLSCAASGFTFSSYPMGWFRQAPGKGREFVSSITGSGGSTYYADSVKGRFTISRDNAKNTLYLQMNSLRPEDTAVYYCAAYIRPDTYLSRDYRKYDYWGQGTLVTVSSGGGGSGGGSEVQLVESGGGLVQPGGSLRLSCAASGFTFSSYPMGWFRQAPGKGREFVSSITGSGGSTYYADSVKGRFTISRDNAKNTLYLQMNSLRPEDTAVYYCAAYIRPDTYLSRDYRKYDYWGQGTLVTVSSGGGC
–	–	–	–	–	0.474	0.497	0.568	8.32	~0.6	RANKL3 (VHH, not shown: small tags and cut ends) VHH: EVQLVESGGKLVQAGGSLRLSCAVSGRTSSIYNMAWFRQGPGKGRESVGRIYWSDDNTYYADSVKGRFTISRDNATNTVYLQMNSLKPEDTAVYYCAGKTTKWSLEYDYWGQGTQVTVSS
0.038	no binding (tested: 10 nM)	no binding (tested: 10 nM)	no binding (tested: 10 nM)	0.025	–	–	–	–	–	RANKL003p (VHH, PEG (3-Maleimidoproprionamide, 1,3-bis(Methoxy poly (ethylene glycol) modified 2-glycerol), Average MW 40,000) coupled after DTT reduction; the entry ends in GGGC, Bivalent pegylated humanized Nanobody; also called RANKL3p; RANKL18hum6-30GS-RANKL18hum6-PEG) EVQLVESGGGLVQPGGSLRLSCAASGRTFSRSAMGWFRQAPGKGREFVGFITGSGGTTYYADSVKGRFTISRDNAQNPVYLQMNSLRPEDTAVYYCAVYRRTYISSTYSESSEYDYWGQGTLVTVSSGGGGSGGGGSGGGGSGGGGSGGGGSGGGGSEVQLVESGGGLVQPGGSLRLSCAASGRTFSRSAMGWFRQAPGKGREFVGFITGSGGTTYYADSVKGRFTISRDNAQNPVYLQMNSLRPEDTAVYYCAVYRRTYISSTYSESSEYDYWGQGTLVTVSSGGGC
